The text below walks through data of patent US20080207501A1 (AMYLIN PHARMACEUTICALS, published 2008).

To fix the notation:
B1: rat amylin (peptide, UniProt P12969 38-74, looked up)
peptide: KCNTATCATQRLANFLVRSSNNLGPVLPPTNVGSNTY
B2: AFP-6 analog SEQ ID NO: 12 (peptide)
peptide: CVLGTCQVQNLSHRLWQLMGPAGRQDSAPVDPSSPHSY-NH2
modifications: ends and bridges not checked
B3: AFP-6 analog SEQ ID NO: 11 (peptide)
peptide: GCVLGTCQVQNLSHRLWQLMGPAGRQDSAPVDPSSPHSY-NH2
modifications: ends and bridges not checked
B4: AFP-6 analog SEQ ID NO: 10 (peptide)
peptide: RVGCVLGTCQVQNLSHRLWQLMGPAGRQDSAPVDPSSPHSY-NH2
modifications: ends and bridges not checked
B5: AFP-6 analog SEQ ID NO: 21 (peptide)
peptide: TQAQLLRVGCNTATCQVQNLSHRLWQLMGPAGRQDSAPVDPSSPHSY-NH2
modifications: ends and bridges not checked
B6: AFP-6 analog SEQ ID NO: 32 (peptide)
peptide: TQAQLLRVGCVLGTCQVQNLSHRLWQLMGPAGRQESAPVEPSSPHSY-NH2
modifications: ends and bridges not checked
B7: AFP-6 analog SEQ ID NO: 18 (peptide)
peptide: VGCVLGTCQVQNLSHRLWQLRQDSAPVDPSSPHSY-NH2
modifications: ends and bridges not checked
B8: AFP-6 analog SEQ ID NO: 36 (peptide)
peptide: VGCVLGTCQVQNLSHRLWQLRQDSAPVEPSSPHSY-NH2
modifications: ends and bridges not checked
B9: AFP-6 analog SEQ ID NO: 16 (peptide)
peptide: TQAQLLRVGCVLGTCQVQNLSHRLWQLRQDSAPVDPSSPHSY-NH2
modifications: ends and bridges not checked
B10: AFP-6 analog SEQ ID NO: 29 (peptide)
peptide: VGCGNLSTCQVQNLSHRLWQLRQDSAPVDPSSPHSY-NH2
modifications: ends and bridges not checked
B11: AFP-6 analog SEQ ID NO: 19 (peptide)
peptide: CVLGTCQVQNLSHRLWQLRQESAPVEPSSPHSY-NH2
modifications: ends and bridges not checked
B12: Human AFP-6 [8-47] (peptide)
peptide: VGCVLGTCQVQNLSHRLWQLMGPAGRQDSAPVDPSSPHSY-NH2
modifications: not fully specified; ends and bridges not checked

Ends that are not written are not given here.

Sequence of amylin receptor (nucleus accumbens membranes prepared from rat brain) (P32214 25-516): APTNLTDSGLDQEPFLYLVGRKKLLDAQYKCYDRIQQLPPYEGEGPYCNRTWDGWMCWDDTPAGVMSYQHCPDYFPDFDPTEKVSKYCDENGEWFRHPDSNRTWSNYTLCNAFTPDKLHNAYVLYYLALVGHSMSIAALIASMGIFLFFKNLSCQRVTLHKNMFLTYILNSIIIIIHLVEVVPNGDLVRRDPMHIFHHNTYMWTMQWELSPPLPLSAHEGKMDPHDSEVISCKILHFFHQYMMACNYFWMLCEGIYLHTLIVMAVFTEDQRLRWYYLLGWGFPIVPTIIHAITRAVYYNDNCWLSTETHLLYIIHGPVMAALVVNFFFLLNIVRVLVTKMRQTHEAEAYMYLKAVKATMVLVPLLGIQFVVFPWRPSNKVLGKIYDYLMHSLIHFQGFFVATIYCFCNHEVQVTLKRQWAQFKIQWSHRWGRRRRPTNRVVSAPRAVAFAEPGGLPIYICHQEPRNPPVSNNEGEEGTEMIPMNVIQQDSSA

The target of one test is calcitonin receptor of CHO cells. Nature of the test: cell-based or functional assay.
As for B1, the “EC50, cAMP (AlphaScreen), CHO cells, Average” value came to 24 nM; the “EC50, cAMP (AlphaScreen), CHO cells, Experiment 1” value stood at 21.6 nM; the “EC50, cAMP (AlphaScreen), CHO cells, Experiment 2” value stood at 30.9 nM; the “EC50, cAMP (AlphaScreen), CHO cells, Experiment 3” value amounted to 19.6 nM.

Another test deals with T1, calcitonin receptor (receptor binding assay).
T1 construct: also called rCalcitonin RBA; CT
Nature of the test: calcitonin receptor binding assay, method not described.
Regarding B2, the IC50 – broadly, the point on the concentration scale where inhibition reaches its midpoint – was found to be 198 nM.
Same read-out and setting: then B3, with 27 nM; and B4, with 55 nM; and B5, with 17 nM.
Same read-out and setting: then B6, with 1000 nM.
For B7, the IC50 worked out at 24 nM.
Still for that read-out and setting: as for B8, the figure is 198 nM.
On the same count and under the same terms, as for B9, the figure is 22 nM; as for B10, 9 nM.
The same measure, in the same setting: then B11, with 247 nM.
With B12, the concentration for half-maximal inhibition (IC50) came out at 24 nM.

For a further test, the target named is T2, adrenomedullin receptor (receptor binding assay).
T2 chain 1: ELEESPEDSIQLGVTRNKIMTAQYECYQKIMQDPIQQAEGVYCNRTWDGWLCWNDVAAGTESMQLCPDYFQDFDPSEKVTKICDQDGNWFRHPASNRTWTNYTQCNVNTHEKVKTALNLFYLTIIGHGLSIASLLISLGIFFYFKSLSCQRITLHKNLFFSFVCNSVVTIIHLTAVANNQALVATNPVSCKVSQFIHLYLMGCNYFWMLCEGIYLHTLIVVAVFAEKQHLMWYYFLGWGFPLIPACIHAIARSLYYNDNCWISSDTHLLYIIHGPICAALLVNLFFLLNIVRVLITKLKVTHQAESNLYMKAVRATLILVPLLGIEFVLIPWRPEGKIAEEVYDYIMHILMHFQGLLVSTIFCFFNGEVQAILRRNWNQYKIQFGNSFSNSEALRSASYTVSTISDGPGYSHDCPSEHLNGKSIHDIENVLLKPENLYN
T2 chain 2: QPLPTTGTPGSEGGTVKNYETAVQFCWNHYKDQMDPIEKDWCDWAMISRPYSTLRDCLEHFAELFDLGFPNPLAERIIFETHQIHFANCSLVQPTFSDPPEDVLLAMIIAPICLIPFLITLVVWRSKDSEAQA
Nature of the test: adrenomedullin receptor binding assay, method not described.
In the case of B2, the IC50 worked out at 18 nM.
Same read-out and setting: then B3, with 11 nM; and B4, with 7.1 nM.
In turn, B5 displayed an IC50 of 47 nM.
The same measure, in the same setting: then B6, with 7.1 nM; and B7, with 1000 nM.
In turn, B8 had a half-inhibitory concentration (IC50) of 1000 nM.
The same measure, in the same setting: as for B9, the figure is 1000 nM.
Same read-out and setting: then B10, with 1000 nM; and B11, with 1000 nM.
Still for that read-out and setting: as for B12, the figure is 6.4 nM.

In a further test the target is T3, CGRP receptor (membranes prepared from SK-N-MC cells) (UniProt Q16602 23-461; O60894 27-148, limits assumed).
T3 construct: whole, on cells; Endogenous receptor in SK-N-MC cell membranes; also called CGRP receptors; CGRP RBA
T3 sequence (O60894 27-148 limits assumed, chain 2 of 2, one chain of several): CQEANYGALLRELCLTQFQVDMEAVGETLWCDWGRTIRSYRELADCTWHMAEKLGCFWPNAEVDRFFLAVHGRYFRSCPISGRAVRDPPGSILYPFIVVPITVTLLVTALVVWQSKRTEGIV
Description: radioligand displacement, 125I-hCGRP, SK-N-MC cell membranes. The method, then:
(§1) Solutions were incubated for 60 minutes at 2 C. […] Filters were washed immediately before filtration with 5 ml cold PBS, and immediately after filtration with 15 ml cold PBS. […] Competition curves were generated by measuring binding in the presence of 10⁻¹² to 10⁻⁶ M unlabeled test compound and were analyzed by nonlinear regression using a 4-parameter logistic equation (INPLOT program; […] Software, San Diego, Calif.).
In turn, B2 returned a concentration for half-maximal inhibition (IC50) of 2.2 nM.
Turning to B3, the IC50 was 0.93 nM.
On the same count and under the same terms, as for B4, the figure is 1.4 nM; as for B5, 8.5 nM; as for B6, 2.3 nM.
Same read-out and setting: then B7, with 3.6 nM; and B8, with 14 nM.
B9 had an IC50 of 1.5 nM.
Same read-out and setting: as for B10, the figure is 111 nM; as for B11, 12.7 nM.

A further test concerns the target amylin receptor (nucleus accumbens membranes prepared from rat brain) (rat, UniProt P32214 25-516). Nature of the test: radioligand displacement, 125I-rat amylin, rat nucleus accumbens membranes. As for the experimental part:
Male Sprague-Dawley® rats (200-250) grams were sacrificed by decapitation. Brains were removed and place in cold phosphate-buffered saline (PBS). From the ventral surface, cuts were made rostral to the hypothalamus, bounded laterally by the olfactory tracts and extending at a 45° angle medially from these tracts. This basal forebrain tissue, containing the nucleus accumbens and surrounding regions, was weighed and homogenized in ice-cold 20 mM HEPES buffer (20 mM HEPES acid, pH adjusted to 7.4 with NaOH at 23° C.). Membranes were washed three times in fresh buffer by centrifugation for 15 minutes at 48,000×g. The final membrane pellet was resuspended in 20 mM HEPES buffer containing 0.2 mM phenylmethylsulfonyl fluoride (PMSF).
as §1
Take B2: the half-inhibitory concentration (IC50) was 9.8 nM.
Still for that read-out and setting: then B3, with 7.7 nM; and B4, with 5.1 nM; and B5, with 8.3 nM.
For B6, the IC50 is 16 nM.
The same measure, in the same setting: as for B7, the figure is 18 nM.
Still for that read-out and setting: as for B8, the figure is 39 nM; as for B9, 21 nM; as for B10, 7.5 nM.
B11 returned a concentration for half-maximal inhibition (IC50) of 29 nM.
On the same count and under the same terms, then B12, with 12 nM.
